Assay results taken from paper PMC6457909 (Science (New York, N.Y.), 2019).

Target: H5N1 A/Vietnam/1203/2004 hemagglutinin, trypsin-cleaved (HA1/HA2), as crystallised with JNJ4796 (influenza A virus H5N1 A/Vietnam/1203/2004) (UniProt Q5EP31)
Assay: crystal structure

**Q.** How did the stoichiometry N turn out when “H5N1 A/Vietnam/1203/2004 hemagglutinin, trypsin-cleaved (HA1/HA2), as crystallised with JNJ4796 (from UniProt Q5EP31 1-568; Q5EP31 1-568) (natural protein)” was run?
**A.** Its stoichiometry N is 3.
